From the nanobody polyreactivity screen of Harvey et al. (2022)

Assay: yeast display, Sf9 membrane polyspecificity reagent, FACS + sequencing; frameworks hold sequencing errors
Procedure, shortened: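 Polyreactivity labels are assigned by the sorting gate from which each nanobody was recovered. The gates were low and high (top ~1%), set on anti-HA fluorescence for expression and streptavidin fluorescence for reagent binding. Before sorting, galactose-induced (36–48 hours) yeast display cells were stained for 1 hour at 4 °C with 10% biotinylated, detergent-solubilized Sf9 membrane reagent.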

| Sequence | polyreactivity (PSR sort gate) |
| --- | --- |
| QVQLVESGGGLVQAGGSLRLSCAASGRTYRYAMGWYRQPPGKERELVAGISSSGTSTNYADSVKGRFTISRDNAKNTVYLQMNSLKPEDTAVYYCNADIIWFPADYLYDYWGQGTQVTVSS | low polyreactivity |
| QVQLVESGGALVQAGGSLRVSCAASGRIFRRNAMGWDRPAPGKERELVAGIDRSGGSTYYADSVKRRFTISRDNGKKTVYIQMNSLKPEDTAVYYCNTRAPYRVKSSGYWGLGTQVTVSS | high polyreactivity |
| QVQLVESGGGLVQAGGSLRLSCAASGRTLRGYAMGWYRQAPGKERELVAAISKGGGSTFYADSVKGRFTISRDNAKNTVYLQMNSLKPEDTAVYYCAADYYSYTYYLDFDYWGQGTQVTVSS | high polyreactivity |
| QVQHVESGGGLVQAGGSLRLSCAASGYIFVRNAMGWYRQAPGKERELVAAISGSGGSTYYADSVKGRFTISRDNAKNTVYLQMNSLKPEDTAVYYCAADYATVTWRGIAYDYWGQGTQVTVSS | low polyreactivity |
| QVQLVESGGGLVHAGGSLRLSCAASGRIFGVYAMGWYRQAPGKERELVAAISEGGGSTNYADSVKGRFTISRDNAKNTVYLQMNSLKPEDTAVYYCAATYRTGVRRYYSWGQGTQVTVSS | low polyreactivity |
| QVQLVETGGGLVQARGSLRLSCAASGRTLPDNAMGWSRQAPGNESELVAAITTSGGSTYYADSVMGRFTISRDNAQNTVYLQLNSLKPEDTAVYYCAADIWQYSLIANYHPYDYWGQGTQVTVSS | low polyreactivity |
| QVQLVESGGGLVQAGGSLRLSCAASGSIFRPYAMGWYRQAPGKEMELVAAISSSGGSTYYADSVKGRFTISRDNAKNTVYLQMNSLKPEDTAVYYCAAESRSTWIHSRDYWGQGTQVTVSS | low polyreactivity |
| QVQLVESGGGLVQAGVSLRLSCAASGRIFPGYAMGSDRQAPAKERELVAGITWRTARTYYADSVKGRFTISRDNAKNTVYLQMNSLKPEDTAVYYCAAVSDYEGNYWGQGTQVTVSS | high polyreactivity |
| QVQLQESGGGLVQAGGSLRLSCAASGSIFQYGYMGWYRQAPGKEREFVAGIGGGTSNYADSVKGRFTISRDNAKNTVYLQMNSLKPEDTAVYYCNTDAGDYYGENYWGQGTQVTVSS | low polyreactivity |
| QVQLVESGGGLVQAGGSLRLSCAASGFTFVYYAMGWYRQAPGKERELVATISGHGGRTYYADSVKGRFTISRDNAKNTVYLQMNSLKPEDTAVYYCAALLYIRSVGYDYWGQGTQVTVSS | low polyreactivity |
| QVQLVESGGGLVQAGGSLRLTCAASGRIFTRYSMGWYRKAPGKEREFVAAITNSGASTYYADSVKGRFTISRDNAKITVYLQMNSLKPEDTAVYYCAGDGPYWWDYDYWGQGTQETVSS | high polyreactivity |
| QVHLVESGGGLVQAGGSLRLSCASSGSIFRYNTMGWYRQAPGKERELVAAIRGDGSTNYADSVKGRFTISRDNAKNTVYLQMNSLKPEDTAVYYCAVNLRGYRYAYDYWGQGTKVTVSS | low polyreactivity |
| QLQLEESGGGLVQAGGSLRLSSAASGRTFYYYAIGWYRQAPGKERELVAAISRGGSTYYADSVKGRFTISRDNAKITVYLQMHSLKPEDTAVYYCAAVLRPDRYDYWGQGTQVTVSS | high polyreactivity |
| QVQLQESGGGLVLAGGSLRLSCSASGNISVYGSMGWYRQAPGKEREFVATIAPGTNTNYADSVKDRFTISRDNAKNTVYLQMNSLKPEDTAVYYCAARHPSSAYWVGYYWYDYWGQGTQVTVSS | low polyreactivity |
| QVQLVESGGGLVQAGGSLRLSCAASGRTFGVYAMGWYRQAPGKERELVAGIRWRGGSTYYADSVKGRFTISRDNAKNTVYLQMNSLKPEDTAVYYCAADVYLVKYDYWGQCTQVTVSS | low polyreactivity |
| QVQLVESGGGLVQAGGSLRLSCAASGRTFARYVMGWYRQAPGKERELVAAINSGGTTYYADSVKGRFTISRDNAKNTVYLQMNSLKPEDTAVYYCNARRGHYAYDYWGQGTQVTLSS | high polyreactivity |
| QVQLVESGGGLDQAGGSLRLSCAASGSIFGVNDMVWNRQAPGKERELVAAISGGGSTYYADSVKGRFTISRDNAKNTVYLQMNSLKPEDTAVYYCARRRTKSYTRKYDYWGQGTQVTVSS | low polyreactivity |
| QVQLEESGGGLLQAGGSLRLSCAASGSTFLRNAKGWYRQAPGKERELVATITISGGSTHYADSVKGRFTISRDNAKNTVYLPMNSLKPEDTAVYYCGTPRYPSYDYWGQGTQVTVSS | low polyreactivity |
| QVQLVESGGGLVQAGGSLRLSCAASGIISYVYAMGWYRQAPGKERELVAAINWSGGNTYYADSVKGRFTISRDNAKNTVYLQMNSLKPEDTAVYYCAARAVLKSWAYYYWGQGTQVTVSS | high polyreactivity |
| QVQLGESGGGLVQAGGSLRLSCAASGIIFYRYAMGWYRQAPGKERELVAAITWSGVSTSYADSVKGRFTISRDNAKNTVYLQMNSLKQEDTAVYYCNKDPGTLYGDMDSWGQGTQVTVSS | low polyreactivity |
| QGQLVESGGGLVQAGGSLRLSCAASGRTFTYYVMGWSRQAPGKERELVAAISWTGGSTNYADSVMGRFTISRDNAKNTVYLQMNSRKPEDTAVYYCNAGGFFGYGRPGYYWGQGTQVTVSS | low polyreactivity |
| QVQLVETGGGLVQAGGSLRLSCAASGFTFRPYVMGWYRQPPGKERELVAGITWDGDSTYYADSVKGRFTISRDNPKNTVYLQMNSLKPEDTAVYYCAAEDADWVSQYYYWGQGTQVTVSS | high polyreactivity |

| Sequence | polyreactivity (PSR sort gate) |
| --- | --- |
| QVQLVESGGGLVQAGGSLRLSCAASGSIFRGNAMGWYRQAPGKERELVAAITSRGTSTYYADSVKGRFTISRDNAKNTVYLQMNSLKREDTAVYYCAARGYYLYWGQGTQVTVSS | high polyreactivity |
| QVQLVESGGGLVQAGGSLRLSCAASGRIFENNAMGWYRQAPGKERELVAAITSGGSTYYADSVKGRFTISRDNAKNTVYLQMNSLKPEDTAVYYCNVTFRVDPWTRTGYDYWGQGTQVTVSS | high polyreactivity |
| QVQLVESGAGLVQAGGSLRLSCAASGTIFSGNAMGWYRQAPGKESELVAAISRSGGSTYYADSVKGRFTISRDNAKNTVSLQKNSLKPEDTAVYYCAAYRTHGPPRAIRFDYWGQGSQVTVSS | high polyreactivity |
| QVQLVESGGGLVQAGGSLRLSFAAYGRTIRWNAMGWYRQEPGKERELVAAITSRGGSTYYADSVKGRFTISRDNAKNTVYLQMNSLKPEDTAVYYCAKQPKPPPVTGYDYWGQGTQVTVSS | high polyreactivity |
| QVQLVESGGGLVQAGGSLRLSCAASGRTFGKNAMGWYRQAPGKERELVAAIRYRTGSTYYADSVKGRFTISRDNAKNTVYLQMNSLKPEDTAVYYCAKVGSSPLYWGQGTQVTVSS | high polyreactivity |
| QVQLVESGGGLFQAGRSLRIRCAASGRILNVYHMGWYRQAPGKERELVAAISSGANTNYAESVKGRFTISRDNAKNTVDLQMNSLKPEDTEVYFCNTEQFYDYDYTFDYWGQGTQVTVSS | low polyreactivity |
| QVQIVESGGGLVQEGGSLRLSCAASGFIFRRNAMGWYRQAPGKERELVAAISSRGGTTHYADSVKGRFTISRDNAKNTVYLQMNSLKPEDSSVYYCATTPQRGGLGGVDYWGQGTQVTVSS | high polyreactivity |
| KVQLVESGGGLVQAGGSLRLSCAASGFIFYRNTMGWYRQAPGKEREFVAAIRWRGGSTYYADSVKGRFTISRDNAKNTVYLQMNSLKPEDTAVYYCAADTRPGYSGFEYWGQGTQVTVSS | high polyreactivity |
| QVQLVESGGGLVQAGGSLRLSCAASGRIFKYYAMGWYRQAPGKERELVAAITSAGNTKYADSVKGRFTISRDNAKNTVYLQMNSLKPEDTAVYYCARGRYYVIGSYDYWGQGTQVTVSS | high polyreactivity |
| QVQLVESGGGLVQAGGSLRISCAASGRTFYRNAMGWNSKAPGKERELVAAIRRSDGSTYYADSVKGRFTISRDNAKNTVYLQMNSLKPEDTAVYYCAAGQGSRNLYYYWGQGTQVTVSS | high polyreactivity |
| QVQLVESGGGLVQAGGSLRLSCAASGSIYGDYAMGWYRQAPGKERELVAAISWRGVRTYYADSVKGRFTISRDNAKNTVYLQMNSLNPEDTAVYYCDAEYYFVNRGAWYDYWGQGTQVTVSS | high polyreactivity |
| QVQLVESGGGLVQAGGSLRLSCAASGITFVGNAMGGYRQATGKERELVAVIRGNGGSTYYADSVKGRFTISRDNAKNTVYLQMNSLKPEDTAVYYCAAAAYYADFDYLGQGTQVTVSS | low polyreactivity |
| QVQLVESGGGLVQAGGSLRVSCAASGSTFASYAMGWSRQAAGKVWEFVAAICRSGGSTYYADSVKGRFTISRDNAKNTVSFQMNSREPEDPAVYYWAKSRYDYTIPEGGYWGQGTQATVSS | low polyreactivity |
| QVQLVESGGGLVQAGGSLRLSCAASGSTFSVNAMGWYRQAPGKEREFVARITWRGGSTYYADSVKRRFTISRDNAKNTVYLQMNSLKPEDTAVYYCAATLRYWWRSSYEDYYWGQGTQVTVSS | low polyreactivity |
| QVQLVESGGGLVQAGGSLRLSCAASGRILYSYAMGWYRQAPGKERELVAAISSTGSTYYADSVKGRFTISRDNAKNTVYLQMNSLKPEDTAVYYCAATFYPYQVHHYYYWGKGTQVTVSS | low polyreactivity |
| QVQLVESGGGLVQAGGSLRLSCAASGRTFIPNAMGWYRQAPGKERELVARITLRGGSTYYADSVKGRFTISRDNAKNTVYLQMNSLKPEDTAVYYCAAVFSRKGLRYDYWGQGTQVTVSS | low polyreactivity |
| QDQLVESGGGLVQAGGSLRLSCAASGRTFWAYAMGWYRQAPGKEREVVASIRSSGTSTYYADSVMGRFTISRDNAKNSVYLQMNSLKPEDTAVYYCAATSGYARYYHREYWGQGTQVTVSS | high polyreactivity |
| QVQLVESGGGLVQAGGRIRLTCAASGFTFKAYSMGCDRQAPGKERELVAAITKSGGRTFYADSVKGRFRISRDNAKNTVYLQMNSLKPEDTAVYYCAASYTVYYWGQGTQVTVSS | high polyreactivity |
| QVQLVESGAGLVQAGGSLRISCAASGFIFNEYAMGWYRQAPGKERELVAAISSGGSTYYADSVKGRFTISRDNAKNTVYLLINSLKPEDTAVYYCNALRRSQPWKYDYWGPGTQVTVSS | low polyreactivity |
| QVHLVESGGGLVQAGGSLRLSCAASGRTFGINAMGWNRQAPGKERELVAVISFGDGGTYYADSVKGRFTISRDNAKNTVYLQMNSLKPEDTAVYYCATDYQSTSVWGGHFVINPYDYWGQGTQVTVSS | low polyreactivity |
| QVQLVESGGGLVQAGGSLSLSCAATGRIFGPYAMGWYRQAPGKERELVATINSGGSTHYADSVKGRFTISRDNAKNTVYLQMNSLKPEDTAVYYCAATSAYGRYRYYYWGQGTQVTVSS | high polyreactivity |
